T1: GST::Bru (full-length Bruno fused to GST) (Drosophila, UniProt O02374 1-604)
T1 construct: Bruno (Bru; encoded by the aret gene), Drosophila; full-length bru cDNA subcloned into pGEX-2TK; Vector pGEX-2TK; source: E. coli CodonPlus, extract, immobilized on Glutathione Sepharose 4B
T1 sequence (looked up): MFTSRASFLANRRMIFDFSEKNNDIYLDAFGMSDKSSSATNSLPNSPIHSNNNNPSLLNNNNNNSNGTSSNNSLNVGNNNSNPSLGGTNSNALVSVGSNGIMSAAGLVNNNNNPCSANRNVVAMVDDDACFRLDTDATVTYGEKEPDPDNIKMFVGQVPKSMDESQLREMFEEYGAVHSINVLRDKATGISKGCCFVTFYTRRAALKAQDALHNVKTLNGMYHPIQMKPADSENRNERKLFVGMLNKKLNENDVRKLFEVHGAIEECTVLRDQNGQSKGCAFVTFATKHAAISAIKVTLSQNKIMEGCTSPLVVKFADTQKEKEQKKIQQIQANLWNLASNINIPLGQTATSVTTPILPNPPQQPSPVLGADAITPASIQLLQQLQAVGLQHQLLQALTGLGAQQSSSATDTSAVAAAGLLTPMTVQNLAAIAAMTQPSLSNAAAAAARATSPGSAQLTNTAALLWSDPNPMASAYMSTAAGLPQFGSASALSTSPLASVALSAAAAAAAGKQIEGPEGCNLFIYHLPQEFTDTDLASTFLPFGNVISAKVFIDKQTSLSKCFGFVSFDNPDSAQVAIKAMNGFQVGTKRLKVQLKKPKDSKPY

B1: His6::Bru Δ334–416 (natural protein, Drosophila, UniProt O02374 1-604, looked up)
chain: MFTSRASFLANRRMIFDFSEKNNDIYLDAFGMSDKSSSATNSLPNSPIHSNNNNPSLLNNNNNNSNGTSSNNSLNVGNNNSNPSLGGTNSNALVSVGSNGIMSAAGLVNNNNNPCSANRNVVAMVDDDACFRLDTDATVTYGEKEPDPDNIKMFVGQVPKSMDESQLREMFEEYGAVHSINVLRDKATGISKGCCFVTFYTRRAALKAQDALHNVKTLNGMYHPIQMKPADSENRNERKLFVGMLNKKLNENDVRKLFEVHGAIEECTVLRDQNGQSKGCAFVTFATKHAAISAIKVTLSQNKIMEGCTSPLVVKFADTQKEKEQKKIQQIQAAAGLLTPMTVQNLAAIAAMTQPSLSNAAAAAARATSPGSAQLTNTAALLWSDPNPMASAYMSTAAGLPQFGSASALSTSPLASVALSAAAAAAAGKQIEGPEGCNLFIYHLPQEFTDTDLASTFLPFGNVISAKVFIDKQTSLSKCFGFVSFDNPDSAQVAIKAMNGFQVGTKRLKVQLKKPKDSKPY
notes: also called Bru lacking most of the linker domain between RRMs 2 and 3; source: E. coli, purified (Ni-NTA); not shown: His6, N-terminal, kept
B2: His6::Bru (full-length Bruno, Bru+) (natural protein, Drosophila, UniProt O02374 1-604, looked up)
chain: T1 sequence (looked up)
notes: Bruno (Bru; encoded by the aret gene), Drosophila; full-length Bru in pET-15b; Vector pET-15b; The tethered transgene proteins carry RRM2/RRM3 point mutations; source: E. coli, purified (Ni-NTA); not shown: His6, N-terminal, kept
B3: His6::Bru 1–146 (isolated amino-terminal domain) (domain or fragment, Drosophila, UniProt O02374 1-146, looked up)
chain: MFTSRASFLANRRMIFDFSEKNNDIYLDAFGMSDKSSSATNSLPNSPIHSNNNNPSLLNNNNNNSNGTSSNNSLNVGNNNSNPSLGGTNSNALVSVGSNGIMSAAGLVNNNNNPCSANRNVVAMVDDDACFRLDTDATVTYGEKEP
notes: also called Bru amino-terminal domain; source: E. coli, purified (Ni-NTA); not shown: His6, N-terminal, kept

Molecular target: T1, GST::Bru (full-length Bruno fused to …)
Assay: pull-down; GST::Bru, GST::Cup or GST immobilized on Glutathione Sepharose 4B from E. coli extract and washed; ~100 ng N-terminally His6-tagged Bru protein in 80 μl binding buffer (50mM Tris-Cl pH7.5, 150mM NaCl, 10% glycerol, 1mM DTT, 0.1% IGEPAL-CA-630), 2–3 hr at room temperature; Western blot with anti-His antibody
Conditions: both partners purified

| binding result | Binder |
| --- | --- |
| binds | B1 |
| binds | B2 |
| binds | B3 |

From paper PMC4344327, “Region-Specific Activation of oskar mRNA Translation by Inhibition of Bruno-Mediated Repression” (PLoS Genetics, 2015)
